Experimental data published in article PMC4335047, “Interaction between the tRNA-Binding and C-Terminal Domains of Yeast Gcn2 Regulates Kinase Activity In Vivo” (PLoS Genetics, 2015).

Columns and labels:
Assay in all cases: pull-down; purified GST fusions (5 μg) immobilised on glutathione-Sepharose 4B beads; in vitro translated [35S]-HisRS(970–1497), partially purified by ammonium sulfate precipitation; buffer A, 4°C, 2 h; without or with increasing tRNA^Phe or a model mRNA; fluorography
Settings in all cases: one partner purified
[1] = target: T1, GST-KD (Gcn2 residues 568–998) (S. cerevisiae, UniProt P15442 568-998)
T1 construct: Gcn2 of S. cerevisiae, kinase domain (KD), residues 568-998; a pGEX vector with the tac promoter points to E. coli; also called GST-GCN2(568–998); source: purified GST fusion (P tac, pGEX-5x-1); not shown: GST, N-terminal, kept

[2] = target: T2, GST-CTD (Gcn2 residues 1498–1659) (S. cerevisiae, UniProt P15442 1498-1659)
T2 construct: Gcn2 of S. cerevisiae, C-terminal domain (CTD), residues 1498-1659; a pGEX vector with the tac promoter points to E. coli; also called GST-GCN2(1498–1659); source: purified GST fusion (P tac, pGEX-5x-1); not shown: GST, N-terminal, kept
T2 sequence (looked up): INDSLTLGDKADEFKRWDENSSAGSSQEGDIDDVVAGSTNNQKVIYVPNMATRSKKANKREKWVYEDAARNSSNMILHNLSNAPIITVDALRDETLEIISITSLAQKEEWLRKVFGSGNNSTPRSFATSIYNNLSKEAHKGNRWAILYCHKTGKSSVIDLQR

[3] = target: T3, GST-HisRS (Gcn2 residues 970–1497), wild type (S. cerevisiae, UniProt P15442 970-1497)
T3 construct: Gcn2 of S. cerevisiae, HisRS-related domain, residues 970-1497; also called WT GST-HisRS; GST-HisRS (970–1497); not shown: GST, N-terminal, kept
T3 sequence (looked up): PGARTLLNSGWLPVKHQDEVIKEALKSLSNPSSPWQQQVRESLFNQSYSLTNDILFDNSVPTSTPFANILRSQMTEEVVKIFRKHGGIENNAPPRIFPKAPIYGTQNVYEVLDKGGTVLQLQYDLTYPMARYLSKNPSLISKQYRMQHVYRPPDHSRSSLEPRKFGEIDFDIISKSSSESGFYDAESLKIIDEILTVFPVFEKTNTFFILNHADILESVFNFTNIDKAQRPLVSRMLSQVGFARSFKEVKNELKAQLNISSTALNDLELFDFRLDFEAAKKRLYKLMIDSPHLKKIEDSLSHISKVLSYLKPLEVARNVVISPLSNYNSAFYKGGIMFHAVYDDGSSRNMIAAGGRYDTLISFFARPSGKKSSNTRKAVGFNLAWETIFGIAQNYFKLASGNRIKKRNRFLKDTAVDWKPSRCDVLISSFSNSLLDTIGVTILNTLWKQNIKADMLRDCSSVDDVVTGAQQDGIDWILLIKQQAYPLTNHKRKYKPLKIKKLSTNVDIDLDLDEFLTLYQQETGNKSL

T1 sequence (P15442 568-998): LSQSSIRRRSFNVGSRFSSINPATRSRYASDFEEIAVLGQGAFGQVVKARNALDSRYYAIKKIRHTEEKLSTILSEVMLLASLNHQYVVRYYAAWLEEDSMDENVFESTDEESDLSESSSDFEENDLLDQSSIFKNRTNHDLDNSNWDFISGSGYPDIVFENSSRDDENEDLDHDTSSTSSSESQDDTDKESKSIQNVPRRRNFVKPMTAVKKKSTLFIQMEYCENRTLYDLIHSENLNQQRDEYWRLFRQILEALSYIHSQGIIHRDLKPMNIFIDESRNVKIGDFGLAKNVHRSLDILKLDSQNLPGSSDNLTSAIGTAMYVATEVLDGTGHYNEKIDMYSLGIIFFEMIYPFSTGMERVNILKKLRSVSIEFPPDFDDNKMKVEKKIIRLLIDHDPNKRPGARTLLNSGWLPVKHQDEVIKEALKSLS

B1: [35S]-HisRS(970–1497) segment of Gcn2 (domain or fragment, S. cerevisiae, UniProt P15442 970-1497, looked up)
chain: PGARTLLNSGWLPVKHQDEVIKEALKSLSNPSSPWQQQVRESLFNQSYSLTNDILFDNSVPTSTPFANILRSQMTEEVVKIFRKHGGIENNAPPRIFPKAPIYGTQNVYEVLDKGGTVLQLQYDLTYPMARYLSKNPSLISKQYRMQHVYRPPDHSRSSLEPRKFGEIDFDIISKSSSESGFYDAESLKIIDEILTVFPVFEKTNTFFILNHADILESVFNFTNIDKAQRPLVSRMLSQVGFARSFKEVKNELKAQLNISSTALNDLELFDFRLDFEAAKKRLYKLMIDSPHLKKIEDSLSHISKVLSYLKPLEVARNVVISPLSNYNSAFYKGGIMFHAVYDDGSSRNMIAAGGRYDTLISFFARPSGKKSSNTRKAVGFNLAWETIFGIAQNYFKLASGNRIKKRNRFLKDTAVDWKPSRCDVLISSFSNSLLDTIGVTILNTLWKQNIKADMLRDCSSVDDVVTGAQQDGIDWILLIKQQAYPLTNHKRKYKPLKIKKLSTNVDIDLDLDEFLTLYQQETGNKSL
modifications: [35S]-methionine labeled
notes: Gcn2 of S. cerevisiae, HisRS-related domain, residues 970-1497; P T7-GCN2 (970–1497) in pGEM-3Z; also called [^35S]-methionine labeled HisRS fragment; [^35S]-HisRS domain fragments; source: in vitro translated (TNT T7 Coupled Reticulocyte Lysate System), partially purified by ammonium sulfate precipitation
fold reduction of the pull-down on addition of tRNA^Phe [1]: ~1.8 fold
fold reduction of the pull-down on addition of tRNA^Phe [2]: ~5.4 fold
fold reduction of the pull-down on addition of tRNA^Phe [3]: ~2.1 fold
